Test results taken from patent US11653679B2, “High-purity steviol glycosides” (PureCircle Sdn Bhd, priority 2014, dated 2023).

Experiment: Directed evolution of UGT76G1, Rebaudioside D to Rebaudioside M, round 1 (Example 26)
Type: biochemical
Settings: 100 μL fresh lysate, 0.5 mM Rebaudioside D, 30° C., pH 7.2
Description: Lysis was performed by addition of Bugbuster® Master mix (Novagen®) to the thawed cells and the lysate was recovered by centrifugation. Activity tests were performed with 100 μL of fresh lysate that was added to a solution of Rebaudioside D (final concentration 0.5 mM), MgCl2 (final concentration 3 mM) and UDP-Glucose (final concentration 2.5 mM) in 50 mM phosphate buffer pH 7.2.
The reaction was allowed to run at 30° C. and samples were taken after 2, 4, 7 and 24 h. to determine conversion and initial rate by HPLC (CAD detection) using the analytical method that was described above for the transformation of Rebaudioside D to Rebaudioside M. The results are depicted in the following table.

B1: UGT76G1var7: UGT76G1 variant, mutations F22L_I43V_A239V (protein, UniProt Q6VAB4 1-458, looked up, variant F22L I43V A239V)
UDP-glycosyltransferase 76G1: MENKTETTVRRRRRIILFPVPLQGHINPILQLANVLYSKGFSVTIFHTNFNKPKTSNYPHFTFRFILDNDPQDERISNLPTHGPLAGMRIPIINEHGADELRRELELLMLASEEDEEVSCLITDALWYFAQSVADSLNLRRLVLMTSSLFNFHAHVSLPQFDELGYLDPDDKTRLEEQASGFPMLKVKDIKSAYSNWQILKEILGKMIKQTKASSGVIWNSFKELEESELETVIREIPVPSFLIPLPKHLTASSSSLLDHDRTVFQWLDQQPPSSVLYVSFGSTSEVDEKDFLEIARGLVDSKQSFLWVVRPGFVKGSTWVEPLPDGFLGERGRIVKWVPQQEVLAHGAIGAFWTHSGWNSTLESVCEGVPMIFSDFGLDQPLNARYMSDVLKVGVYLENGWERGEIANAIRRVMVDEEGEYIRQNARVLKQKADVSLMKGGSSYESLESLVSYISSL
With B1 the “conversion Reb D to Reb M after 24 h” value was 0.2% and the initial rate was −6.0E+04 Reb M area/min.

B2: UGT76G1var15: UGT76G1 variant, mutations F41L_L246F_Q425E (protein, UniProt Q6VAB4 1-458, looked up, variant F41L L246F Q425E)
UDP-glycosyltransferase 76G1: MENKTETTVRRRRRIILFPVPFQGHINPILQLANVLYSKGLSITIFHTNFNKPKTSNYPHFTFRFILDNDPQDERISNLPTHGPLAGMRIPIINEHGADELRRELELLMLASEEDEEVSCLITDALWYFAQSVADSLNLRRLVLMTSSLFNFHAHVSLPQFDELGYLDPDDKTRLEEQASGFPMLKVKDIKSAYSNWQILKEILGKMIKQTKASSGVIWNSFKELEESELETVIREIPAPSFLIPFPKHLTASSSSLLDHDRTVFQWLDQQPPSSVLYVSFGSTSEVDEKDFLEIARGLVDSKQSFLWVVRPGFVKGSTWVEPLPDGFLGERGRIVKWVPQQEVLAHGAIGAFWTHSGWNSTLESVCEGVPMIFSDFGLDQPLNARYMSDVLKVGVYLENGWERGEIANAIRRVMVDEEGEYIRENARVLKQKADVSLMKGGSSYESLESLVSYISSL
With B2 the “conversion Reb D to Reb M after 24 h” value was 5.6% and the initial rate was 1.5E+06 Reb M area/min.

B3: UGT76G1var12: UGT76G1 variant, mutations L243P_K303G_A352G (protein, UniProt Q6VAB4 1-458, looked up, variant L243P K303G A352G)
UDP-glycosyltransferase 76G1: MENKTETTVRRRRRIILFPVPFQGHINPILQLANVLYSKGFSITIFHTNFNKPKTSNYPHFTFRFILDNDPQDERISNLPTHGPLAGMRIPIINEHGADELRRELELLMLASEEDEEVSCLITDALWYFAQSVADSLNLRRLVLMTSSLFNFHAHVSLPQFDELGYLDPDDKTRLEEQASGFPMLKVKDIKSAYSNWQILKEILGKMIKQTKASSGVIWNSFKELEESELETVIREIPAPSFPIPLPKHLTASSSSLLDHDRTVFQWLDQQPPSSVLYVSFGSTSEVDEKDFLEIARGLVDSGQSFLWVVRPGFVKGSTWVEPLPDGFLGERGRIVKWVPQQEVLAHGAIGGFWTHSGWNSTLESVCEGVPMIFSDFGLDQPLNARYMSDVLKVGVYLENGWERGEIANAIRRVMVDEEGEYIRQNARVLKQKADVSLMKGGSSYESLESLVSYISSL
With B3 the “conversion Reb D to Reb M after 24 h” value was 0.5% and the initial rate was 8.7E+04 Reb M area/min.

B4: UGT76G1var13: UGT76G1 variant, mutations L243A_S357C_A385T (protein, UniProt Q6VAB4 1-458, looked up, variant L243A S357C A385T)
UDP-glycosyltransferase 76G1: MENKTETTVRRRRRIILFPVPFQGHINPILQLANVLYSKGFSITIFHTNFNKPKTSNYPHFTFRFILDNDPQDERISNLPTHGPLAGMRIPIINEHGADELRRELELLMLASEEDEEVSCLITDALWYFAQSVADSLNLRRLVLMTSSLFNFHAHVSLPQFDELGYLDPDDKTRLEEQASGFPMLKVKDIKSAYSNWQILKEILGKMIKQTKASSGVIWNSFKELEESELETVIREIPAPSFAIPLPKHLTASSSSLLDHDRTVFQWLDQQPPSSVLYVSFGSTSEVDEKDFLEIARGLVDSKQSFLWVVRPGFVKGSTWVEPLPDGFLGERGRIVKWVPQQEVLAHGAIGAFWTHCGWNSTLESVCEGVPMIFSDFGLDQPLNTRYMSDVLKVGVYLENGWERGEIANAIRRVMVDEEGEYIRQNARVLKQKADVSLMKGGSSYESLESLVSYISSL
With B4 the “conversion Reb D to Reb M after 24 h” value was 0.2% and the initial rate was −3.3E+04 Reb M area/min.

B5: UGT76G1var8: UGT76G1 variant, mutations E224A_Q266S_Q342E (protein, UniProt Q6VAB4 1-458, looked up, variant E224A Q266S Q342E)
UDP-glycosyltransferase 76G1: MENKTETTVRRRRRIILFPVPFQGHINPILQLANVLYSKGFSITIFHTNFNKPKTSNYPHFTFRFILDNDPQDERISNLPTHGPLAGMRIPIINEHGADELRRELELLMLASEEDEEVSCLITDALWYFAQSVADSLNLRRLVLMTSSLFNFHAHVSLPQFDELGYLDPDDKTRLEEQASGFPMLKVKDIKSAYSNWQILKEILGKMIKQTKASSGVIWNSFKALEESELETVIREIPAPSFLIPLPKHLTASSSSLLDHDRTVFSWLDQQPPSSVLYVSFGSTSEVDEKDFLEIARGLVDSKQSFLWVVRPGFVKGSTWVEPLPDGFLGERGRIVKWVPQEEVLAHGAIGAFWTHSGWNSTLESVCEGVPMIFSDFGLDQPLNARYMSDVLKVGVYLENGWERGEIANAIRRVMVDEEGEYIRQNARVLKQKADVSLMKGGSSYESLESLVSYISSL
For B5, the “conversion Reb D to Reb M after 24 h” value was 0.5% and the initial rate was 2.3E+04 Reb M area/min.

B6: UGT76G1var11: UGT76G1 variant, mutations F22L_A33G_V310I (protein, UniProt Q6VAB4 1-458, looked up, variant F22L A33G V310I)
UDP-glycosyltransferase 76G1: MENKTETTVRRRRRIILFPVPLQGHINPILQLGNVLYSKGFSITIFHTNFNKPKTSNYPHFTFRFILDNDPQDERISNLPTHGPLAGMRIPIINEHGADELRRELELLMLASEEDEEVSCLITDALWYFAQSVADSLNLRRLVLMTSSLFNFHAHVSLPQFDELGYLDPDDKTRLEEQASGFPMLKVKDIKSAYSNWQILKEILGKMIKQTKASSGVIWNSFKELEESELETVIREIPAPSFLIPLPKHLTASSSSLLDHDRTVFQWLDQQPPSSVLYVSFGSTSEVDEKDFLEIARGLVDSKQSFLWVIRPGFVKGSTWVEPLPDGFLGERGRIVKWVPQQEVLAHGAIGAFWTHSGWNSTLESVCEGVPMIFSDFGLDQPLNARYMSDVLKVGVYLENGWERGEIANAIRRVMVDEEGEYIRQNARVLKQKADVSLMKGGSSYESLESLVSYISSL
For B6, the “conversion Reb D to Reb M after 24 h” value was 0.4% and the initial rate was 3.8E+04 Reb M area/min.

B7: UGT76G1var14: UGT76G1 variant, mutations A239I_F265I_V396F (protein, UniProt Q6VAB4 1-458, looked up, variant A239I F265I V396F)
UDP-glycosyltransferase 76G1: MENKTETTVRRRRRIILFPVPFQGHINPILQLANVLYSKGFSITIFHTNFNKPKTSNYPHFTFRFILDNDPQDERISNLPTHGPLAGMRIPIINEHGADELRRELELLMLASEEDEEVSCLITDALWYFAQSVADSLNLRRLVLMTSSLFNFHAHVSLPQFDELGYLDPDDKTRLEEQASGFPMLKVKDIKSAYSNWQILKEILGKMIKQTKASSGVIWNSFKELEESELETVIREIPIPSFLIPLPKHLTASSSSLLDHDRTVIQWLDQQPPSSVLYVSFGSTSEVDEKDFLEIARGLVDSKQSFLWVVRPGFVKGSTWVEPLPDGFLGERGRIVKWVPQQEVLAHGAIGAFWTHSGWNSTLESVCEGVPMIFSDFGLDQPLNARYMSDVLKVGFYLENGWERGEIANAIRRVMVDEEGEYIRQNARVLKQKADVSLMKGGSSYESLESLVSYISSL
In the case of B7, the “conversion Reb D to Reb M after 24 h” value is reported as 5.3% and the initial rate is reported as 1.5E+06 Reb M area/min.

B8: UGT76G1var16: UGT76G1 variant, mutations F265I_P272A_I335V (protein, UniProt Q6VAB4 1-458, looked up, variant F265I P272A I335V)
UDP-glycosyltransferase 76G1: MENKTETTVRRRRRIILFPVPFQGHINPILQLANVLYSKGFSITIFHTNFNKPKTSNYPHFTFRFILDNDPQDERISNLPTHGPLAGMRIPIINEHGADELRRELELLMLASEEDEEVSCLITDALWYFAQSVADSLNLRRLVLMTSSLFNFHAHVSLPQFDELGYLDPDDKTRLEEQASGFPMLKVKDIKSAYSNWQILKEILGKMIKQTKASSGVIWNSFKELEESELETVIREIPAPSFLIPLPKHLTASSSSLLDHDRTVIQWLDQQAPSSVLYVSFGSTSEVDEKDFLEIARGLVDSKQSFLWVVRPGFVKGSTWVEPLPDGFLGERGRVVKWVPQQEVLAHGAIGAFWTHSGWNSTLESVCEGVPMIFSDFGLDQPLNARYMSDVLKVGVYLENGWERGEIANAIRRVMVDEEGEYIRQNARVLKQKADVSLMKGGSSYESLESLVSYISSL
Work on B8 yielded an initial rate of 5.8E+06 Reb M area/min.

B9: UGT76G1var9: UGT76G1 variant, mutations E231A_D301N_G348P (protein, UniProt Q6VAB4 1-458, looked up, variant E231A D301N G348P)
UDP-glycosyltransferase 76G1: MENKTETTVRRRRRIILFPVPFQGHINPILQLANVLYSKGFSITIFHTNFNKPKTSNYPHFTFRFILDNDPQDERISNLPTHGPLAGMRIPIINEHGADELRRELELLMLASEEDEEVSCLITDALWYFAQSVADSLNLRRLVLMTSSLFNFHAHVSLPQFDELGYLDPDDKTRLEEQASGFPMLKVKDIKSAYSNWQILKEILGKMIKQTKASSGVIWNSFKELEESELATVIREIPAPSFLIPLPKHLTASSSSLLDHDRTVFQWLDQQPPSSVLYVSFGSTSEVDEKDFLEIARGLVNSKQSFLWVVRPGFVKGSTWVEPLPDGFLGERGRIVKWVPQQEVLAHPAIGAFWTHSGWNSTLESVCEGVPMIFSDFGLDQPLNARYMSDVLKVGVYLENGWERGEIANAIRRVMVDEEGEYIRQNARVLKQKADVSLMKGGSSYESLESLVSYISSL
In the case of B9, the “conversion Reb D to Reb M after 24 h” value is reported as 52.0% and the initial rate is reported as 4.9E+07 Reb M area/min.

B10: UGT76G1var10: UGT76G1 variant, mutations A33G_L246F_Q342E (protein, UniProt Q6VAB4 1-458, looked up, variant A33G L246F Q342E)
UDP-glycosyltransferase 76G1: MENKTETTVRRRRRIILFPVPFQGHINPILQLGNVLYSKGFSITIFHTNFNKPKTSNYPHFTFRFILDNDPQDERISNLPTHGPLAGMRIPIINEHGADELRRELELLMLASEEDEEVSCLITDALWYFAQSVADSLNLRRLVLMTSSLFNFHAHVSLPQFDELGYLDPDDKTRLEEQASGFPMLKVKDIKSAYSNWQILKEILGKMIKQTKASSGVIWNSFKELEESELETVIREIPAPSFLIPFPKHLTASSSSLLDHDRTVFQWLDQQPPSSVLYVSFGSTSEVDEKDFLEIARGLVDSKQSFLWVVRPGFVKGSTWVEPLPDGFLGERGRIVKWVPQEEVLAHGAIGAFWTHSGWNSTLESVCEGVPMIFSDFGLDQPLNARYMSDVLKVGVYLENGWERGEIANAIRRVMVDEEGEYIRQNARVLKQKADVSLMKGGSSYESLESLVSYISSL
For B10, the “conversion Reb D to Reb M after 24 h” value was 0.3% and the initial rate was −7.7E+02 Reb M area/min.
